{"source": "patent US20130101549A1", "about": "(Biogen, published 2013)", "key": {"[1]": {"biological_target": "T1, human HVEM-Ig (human, UniProt Q92956 39-202)", "T1 construct": "Expressed and purified in house; also called HVEM-Fc; Herpes virus entry mediator-Ig", "T1 sequence (looked up)": "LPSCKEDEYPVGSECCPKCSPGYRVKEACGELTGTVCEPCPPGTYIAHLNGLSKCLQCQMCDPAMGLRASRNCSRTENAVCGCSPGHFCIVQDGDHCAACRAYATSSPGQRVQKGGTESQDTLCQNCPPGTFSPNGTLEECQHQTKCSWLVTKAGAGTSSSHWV", "test": "ELISA, huHVEM-Ig coated at 2 ug/ml, HRP goat anti-human kappa; the number is C of the printed 4-P fit (A 0.064, B 0.959, D 1.517, R^2 0.999); Fab-Light is BIIB71F10-132 by paragraph 503", "description": "Human and murine ErbB2-Fc were obtained from R&D Systems. Wells of 96-well plates were coated with 2 ug/ml or 0.2 ug/ml of human or murine HER2-Fc by incubation overnight at 4-8° C. with either of these six proteins (80 ul/well of a 0.2 or 2 ug/ml solution in PBS). Wells were emptied, filled completely with a solution of PBS with 1% BSA (blocking buffer) and incubated at room temperature for 1 hour. Wells were emptied, washed twice PBS containing 0.05% Tween 20 (PBST) and filled with the samples (80 ul/well of 3× dilution series of the standard and supernatants in blocking buffer) prepared in another 96-well plate. After a 2-hour incubation at room temperature, the wells were emptied, washed three times with PBST and filled with a solution of HRP-conjugated goat pAbs anti-human kappa chain (80 ul/well of a 2000-fold dilution in blocking buffer). After 1-hour incubation, the wells were emptied and filled with a solution of HRP substrate prepared freshly. The color was left to develop for 3 minutes and was stopped by addition of an equal volume of 1N H₂SO₄. Absorbance was measured at 450 nm using a Plate Reader (SpectraMax, Molecular Devices). The data was processed and graphs were created using SoftMax Pro software.\nHuman and murine HVEM-Ig were expressed and purified in house."}, "[2]": {"biological_target": "T2, human HER2/ErbB2 on cells (human, UniProt P04626 23-1255)", "T2 construct": "whole, on cells; also called hHER2/ErbB2; wild type HER2/ErbB", "test": "FACS on HER2-expressing cells"}}}
{"binder": "71F10 Fab-hLIGHT fusion with the (G4S)4 linker (BIIB71F10-132) (other, Trimer of Fab-LIGHT units; also called 71F10 Fab-(G4S)4-LIGHT) heavy: EVQLLESGGGLVQPGGSLRLSCAASGFTFSSYGMVWVRQAPGKGLEWVSSISSSGGLTWYADSVKGRFTISRDNSKNTLYLQMNSLRAEDTAVYYCASPPGIAVARDYWGQGTLVTVSSASTKGPSVFPLAPSSKSTSGGTAALGCLVKDYFPEPVTVSWNSGALTSGVHTFPAVLQSSGLYSLSSVVTVPSSSLGTQTYICNVNHKPSNTKVDKKVEPKSCDKGGGGSGGGGSGGGGSGGGGSNPAAHLTGANSSLTGSGGPLLWETQLGLAFLRGLSYHDGALVVTKAGYYYIYSKVQLGGVGCPLGLASTITHGLYKRTPRYPEELELLVSQQSPCGRATSSSRVWWDSSFLGGVVHLEAGEEVVVRVLDERLVRLRDGTRSYFGAFMV light: DIQMTQSPSSLSASVGDRVTITCRASQGISNYLAWYQQKPGKVPKLLIYAASTLQSGVPSRFSGSGSGTDFTLTISSLQPEDVATYYCQKYNSALLTFGGGTKVEIKRTVAAPSVFIFPPSDEQLKSGTASVVCLLNNFYPREAKVQWKVDNALQSGNSQESVTEQDSKDSTYSLSSTLTLSKADYEKHKVYACEVTHQGLSSPVTKSFNRGEC", "values": [{"measurement": "EC50", "setting": "[1]", "value": 2.45, "unit": "ng/mL"}, {"measurement": "EC50", "setting": "[2]", "value": 0.5, "unit": "nM"}]}
